Laboratory results reported in patent US20200222478A1 (published 2020).

Target: T1, HLA-B*07:02 (human, biotinylated heavy chain)
T1 construct: Conditional HLA class I complex first loaded with a UV-labile peptide, exchanged for the test peptide after UV; also called conditional HLA class I complex
Experiment: UV peptide exchange + HLA class I ELISA
Description: (§1) The HLA class I ELISA is an enzyme immunoassay based on the detection of beta2-microglobulin (B2M) of (peptide-stabilized) HLA class I complexes. To this end streptavidin was bound onto polystyrene microtiter wells. […] Non-bound material was removed by washing. Subsequently, horseradish peroxidase (HRP)-conjugated antibody to human B2M was added. […] In the latter case B2M was removed during the washing step. After removal of non-bound HRP conjugate by washing, a substrate solution was added to the wells. A coloured product formed in proportion to the amount of intact HLA complex present in the samples. After the reaction was terminated by the addition of a stop solution, absorbance was measured in a microtiter plate reader.

| Binder | exchange rate vs Pos peptide [%] |
| --- | --- |
| FPVGAEGTF [P27 9-mer peptide (FAM126B-ORC2 fusion)] | 7.8 |
| NSKMALNSL [P35 9-mer peptide (TMPRSS2-ERG fusion)] | 12.1 |
| IQYSCMGLM [P50 9-mer peptide (AR (W742C))] | 10.4 |
| NMVENGCYL [P59 9-mer peptide (FOXA1 (F254V))] | 7.5 |
| FFKRAAEGF [P77 9-mer peptide (AR-V3 splice variant)] | 14.2 |
| STRRAVRRM (Synthetic 9-mer fragment) [P16 9-mer peptide (MSMB-NCOA4 fusion)] | 13.7 |

Target: T2, HLA-A*02:01 (human, biotinylated heavy chain)
T2 construct: Conditional HLA class I complex first loaded with a UV-labile peptide, exchanged for the test peptide after UV; also called conditional HLA class I complex
Experiment: UV peptide exchange + HLA class I ELISA
Description: as §1

| Binder | exchange rate vs Pos peptide [%] |
| --- | --- |
| FPVGAEGTF [P27 9-mer peptide (FAM126B-ORC2 fusion)] | 10 |
| NSKMALNSL [P35 9-mer peptide (TMPRSS2-ERG fusion)] | 12.5 |
| IQYSCMGLM [P50 9-mer peptide (AR (W742C))] | 8.8 |
| GVLRRLLCR [P37 9-mer peptide (TSTD1-F11R fusion)] | 12.5 |
| NMVENGCYL [P59 9-mer peptide (FOXA1 (F254V))] | 11.9 |
| STRRAVRRM (Synthetic 9-mer fragment) [P16 9-mer peptide (MSMB-NCOA4 fusion)] | 10.4 |

Target: T3, HLA-A*03:01 (human, biotinylated heavy chain)
T3 construct: Conditional HLA class I complex first loaded with a UV-labile peptide, exchanged for the test peptide after UV; also called conditional HLA class I complex
Experiment: UV peptide exchange + HLA class I ELISA
Description: as §1

| Binder | exchange rate vs Pos peptide [%] |
| --- | --- |
| FPVGAEGTF [P27 9-mer peptide (FAM126B-ORC2 fusion)] | 4.5 |
| NSKMALNSL [P35 9-mer peptide (TMPRSS2-ERG fusion)] | 4.2 |
| IQYSCMGLM [P50 9-mer peptide (AR (W742C))] | 5.5 |
| GVLRRLLCR [P37 9-mer peptide (TSTD1-F11R fusion)] | 6.4 |
| NMVENGCYL [P59 9-mer peptide (FOXA1 (F254V))] | 4.5 |
| FFKRAAEGF [P77 9-mer peptide (AR-V3 splice variant)] | 2.8 |
| STRRAVRRM (Synthetic 9-mer fragment) [P16 9-mer peptide (MSMB-NCOA4 fusion)] | 6.1 |

Target: T4, HLA-A*24:02 (human, biotinylated heavy chain)
T4 construct: Conditional HLA class I complex first loaded with a UV-labile peptide, exchanged for the test peptide after UV; also called conditional HLA class I complex
Experiment: UV peptide exchange + HLA class I ELISA
Description: as §1

| Binder | exchange rate vs Pos peptide [%] |
| --- | --- |
| FPVGAEGTF [P27 9-mer peptide (FAM126B-ORC2 fusion)] | 0.7 |
| NSKMALNSL [P35 9-mer peptide (TMPRSS2-ERG fusion)] | 0.2 |
| IQYSCMGLM [P50 9-mer peptide (AR (W742C))] | 0.1 |
| GVLRRLLCR [P37 9-mer peptide (TSTD1-F11R fusion)] | -0.1 |
| NMVENGCYL [P59 9-mer peptide (FOXA1 (F254V))] | -0.5 |
| FFKRAAEGF [P77 9-mer peptide (AR-V3 splice variant)] | 1.7 |
| STRRAVRRM (Synthetic 9-mer fragment) [P16 9-mer peptide (MSMB-NCOA4 fusion)] | 0.8 |

Target: T5, HLA-B*08:01 (human, biotinylated heavy chain)
T5 construct: Conditional HLA class I complex first loaded with a UV-labile peptide, exchanged for the test peptide after UV; also called conditional HLA class I complex
Experiment: UV peptide exchange + HLA class I ELISA
Description: as §1

| Binder | exchange rate vs Pos peptide [%] |
| --- | --- |
| FPVGAEGTF [P27 9-mer peptide (FAM126B-ORC2 fusion)] | 6.4 |
| NSKMALNSL [P35 9-mer peptide (TMPRSS2-ERG fusion)] | 13.7 |
| IQYSCMGLM [P50 9-mer peptide (AR (W742C))] | 4.7 |
| GVLRRLLCR [P37 9-mer peptide (TSTD1-F11R fusion)] | 3.3 |
| NMVENGCYL [P59 9-mer peptide (FOXA1 (F254V))] | 5.5 |
| FFKRAAEGF [P77 9-mer peptide (AR-V3 splice variant)] | 3.4 |
| STRRAVRRM (Synthetic 9-mer fragment) [P16 9-mer peptide (MSMB-NCOA4 fusion)] | 6.2 |

Target: T6, HLA-A*01:01 (human, biotinylated heavy chain)
T6 construct: Conditional HLA class I complex first loaded with a UV-labile peptide, which is cleaved by UV and exchanged for the test peptide; captured on streptavidin by its biotinylated heavy chain; also called conditional HLA class I complex
Experiment: UV peptide exchange + HLA class I ELISA
Description: as §1

| Binder | exchange rate vs Pos peptide [%] |
| --- | --- |
| FPVGAEGTF [P27 9-mer peptide (FAM126B-ORC2 fusion)] | 4.8 |
| NSKMALNSL [P35 9-mer peptide (TMPRSS2-ERG fusion)] | 2.5 |
| IQYSCMGLM [P50 9-mer peptide (AR (W742C))] | 2.3 |
| GVLRRLLCR [P37 9-mer peptide (TSTD1-F11R fusion)] | 1.4 |
| NMVENGCYL [P59 9-mer peptide (FOXA1 (F254V))] | 2.2 |
| FFKRAAEGF [P77 9-mer peptide (AR-V3 splice variant)] | 1.9 |
| STRRAVRRM (Synthetic 9-mer fragment) [P16 9-mer peptide (MSMB-NCOA4 fusion)] | 5.5 |
